Experiments:
Assay in all cases: cell_activity
Settings in all cases: E. coli, bisulfite
[1] = target: Split M.SssI-HS1/HS2 variant PFCSY K297P,N299C,E301Y (Spiroplasma sp. (M.SssI)?) (UniProt P15840+P15840)
[2] = target: Split M.SssI (1-272)-HS1 / HS2-M.SssI (273-386), 'wild-type' KFNSE at 297-301 (Spiroplasma sp. (M.SssI)?) (UniProt P15840)
[3] = target: Split M.SssI-HS1/HS2 variant CFESY K297C,N299E,E301Y (Spiroplasma sp. (M.SssI)?) (UniProt P15840)
Sequence of Split M.SssI-HS1/HS2 variant CFESY K297C,N299E,E301Y (Spiroplasma sp. (M.SssI)?) (P15840 other isoform, or with tags, fused parts or gaps K297C N299E E301Y, chain 1 of 2): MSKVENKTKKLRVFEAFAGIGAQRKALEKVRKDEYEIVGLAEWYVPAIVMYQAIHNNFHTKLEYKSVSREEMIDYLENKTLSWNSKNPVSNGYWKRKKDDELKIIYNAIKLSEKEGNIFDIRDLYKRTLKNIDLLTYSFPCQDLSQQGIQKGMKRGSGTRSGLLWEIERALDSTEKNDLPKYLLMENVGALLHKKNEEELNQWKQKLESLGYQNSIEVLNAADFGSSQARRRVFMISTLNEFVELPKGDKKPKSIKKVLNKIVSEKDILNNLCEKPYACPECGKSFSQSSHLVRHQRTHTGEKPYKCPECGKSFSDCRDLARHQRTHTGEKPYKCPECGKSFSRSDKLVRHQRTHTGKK
Sequence of Split M.SssI-HS1/HS2 variant CFESY K297C,N299E,E301Y (Spiroplasma sp. (M.SssI)?) (P15840 other isoform, or with tags, fused parts or gaps K297C N299E E301Y, chain 2 of 2): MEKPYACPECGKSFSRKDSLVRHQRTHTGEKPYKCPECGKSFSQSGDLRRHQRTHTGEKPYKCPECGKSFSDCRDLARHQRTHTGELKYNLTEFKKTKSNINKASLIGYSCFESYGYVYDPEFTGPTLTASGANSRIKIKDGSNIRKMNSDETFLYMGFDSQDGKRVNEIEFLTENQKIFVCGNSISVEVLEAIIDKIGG

Sequence of Split M.SssI (1-272)-HS1 / HS2-M.SssI (273-386), 'wild-type' KFNSE at 297-301 (Spiroplasma sp. (M.SssI)?) (P15840 other isoform, or with tags, fused parts or gaps, chain 1 of 2): as the sequence (P15840 other isoform, or with tags, fused parts or gaps K297C N299E E301Y, chain 1 of 2) above
Sequence of Split M.SssI (1-272)-HS1 / HS2-M.SssI (273-386), 'wild-type' KFNSE at 297-301 (Spiroplasma sp. (M.SssI)?) (P15840 other isoform, or with tags, fused parts or gaps, chain 2 of 2): as the sequence (P15840 other isoform, or with tags, fused parts or gaps K297C N299E E301Y, chain 2 of 2) above, with C111K, E113N, Y115E counted along it
Sequence of Split M.SssI-HS1/HS2 variant PFCSY K297P,N299C,E301Y (Spiroplasma sp. (M.SssI)?) (P15840 whole entry, stated change not applied, chain 1 of 2): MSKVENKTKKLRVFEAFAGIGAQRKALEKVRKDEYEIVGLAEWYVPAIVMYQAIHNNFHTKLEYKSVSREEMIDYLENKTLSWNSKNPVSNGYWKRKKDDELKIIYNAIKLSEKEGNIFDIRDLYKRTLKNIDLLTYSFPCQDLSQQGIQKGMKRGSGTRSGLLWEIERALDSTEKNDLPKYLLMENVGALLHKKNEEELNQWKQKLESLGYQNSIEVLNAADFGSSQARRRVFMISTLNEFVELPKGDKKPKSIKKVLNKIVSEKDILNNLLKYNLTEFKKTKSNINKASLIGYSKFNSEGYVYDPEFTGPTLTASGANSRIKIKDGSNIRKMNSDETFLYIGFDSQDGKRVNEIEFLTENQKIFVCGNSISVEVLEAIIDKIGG
Sequence of Split M.SssI-HS1/HS2 variant PFCSY K297P,N299C,E301Y (Spiroplasma sp. (M.SssI)?) (P15840 whole entry, stated change not applied, chain 2 of 2): as the sequence (P15840 whole entry, stated change not applied, chain 1 of 2) above

Substance | activity [1] | activity [2] | activity ([3]; 70-80% by restriction protection, also target-only methylation in HEK293) | activity ([1]; all off-target CpGs) | activity ([2]; all off-target CpGs) | activity ([3]; all off-target CpGs)
HS1/HS2 target site (FspI CpG flanked by HS1 and HS2 sites, plasmid) | 78.9 % methylated | 94.1 % methylated | 42.1 % methylated |  |  | 
Non-target site (SnaBI CpG or surrounding CpGs, no ZF sites, plasmid) |  |  |  | 0.84 % methylated | 49.5 % methylated | 0.71 % methylated
